Laboratory results published in patent US20240091361A1, “T CELL RECEPTORS TARGETING RAS MUTATIONS AND USES THEREOF” (MEMORIAL SLOAN-KETTERING CANCER CENTER, priority 2021, published 2024).
Values belong to the binder of their own block, whether it stands above or below them.

What was measured:
[1] = biological target: T1, KRAS wild type (10-mer) peptide on HLA-A*11:01 (human); test: cytokine release
T1 peptide: VVVGAGGVGK

[2] = biological target: T2, GEM (also listed as SEQ ID NOs 82, 106, 130, 141) peptide on HLA-A*11:01 (human); test: cytokine release
T2 peptide: AVFGAGGVGK

[3] = biological target: T3, BY55 peptide on HLA-A*11:01 (human); test: cytokine release
T3 peptide: RDPGIDGVGE

[4] = biological target: T4, CO6A3 peptide on HLA-A*11:01 (human); test: cytokine release
T4 peptide: GDDGRDGVGS

[5] = biological target: T5, CO8A2 peptide on HLA-A*11:01 (human); test: cytokine release
T5 peptide: GPPGVDGVGV

[6] = biological target: T6, COBA1 peptide on HLA-A*11:01 (human); test: cytokine release
T6 peptide: GPAGQDGVGG

[7] = biological target: T7, COIA1 peptide on HLA-A*11:01 (human); test: cytokine release
T7 peptide: GDPGKDGVGQ

[8] = biological target: T8, EFGM peptide on HLA-A*11:01 (human); test: cytokine release
T8 peptide: EVKGKDGVGA

[9] = biological target: T9, MEIS1 peptide on HLA-A*11:01 (human); test: cytokine release
T9 peptide: HYGGMDGVGI

[10] = biological target: T10, MEIS2 peptide on HLA-A*11:01 (human); test: cytokine release
T10 peptide: HYGGMDGVGV

[11] = biological target: T11, PUR2 peptide on HLA-A*11:01 (human); test: cytokine release
T11 peptide: LASGTDGVGT

[12] = biological target: T12, USH1G peptide on HLA-A*11:01 (human); test: cytokine release
T12 peptide: EDGGLDGVGA

[13] = biological target: T13, ABCF1 peptide on HLA-A*11:01 (human); test: cytokine release
T13 peptide: CIVGPNGVGK

[14] = biological target: T14, AGRIN peptide on HLA-A*11:01 (human); test: cytokine release
T14 peptide: PVCGSDGVTY

[15] = biological target: T15, CGAT2 peptide on HLA-A*11:01 (human); test: cytokine release
T15 peptide: RNVGANGIGY

[16] = biological target: T16, DNHD1 peptide on HLA-A*11:01 (human); test: cytokine release
T16 peptide: TVLGPNGVGK

[17] = biological target: T17, IBP7 peptide on HLA-A*11:01 (human); test: cytokine release
T17 peptide: PVCGSDGTTY

[18] = biological target: T18, NLRP9 peptide on HLA-A*11:01 (human); test: cytokine release
T18 peptide: VLEGPDGIGK

[19] = biological target: T19, PRA19 peptide on HLA-A*11:01 (human); test: cytokine release
T19 peptide: KLFISDGCGY

[20] = biological target: T20, SMC5 peptide on HLA-A*11:01 (human); test: cytokine release
T20 peptide: MIVGANGTGK

[21] = biological target: T21, SO3A1 peptide on HLA-A*11:01 (human); test: cytokine release
T21 peptide: PVCGADGITY

[22] = biological target: T22, SO5A1 peptide on HLA-A*11:01 (human); test: cytokine release
T22 peptide: PVCGSDGITY

[23] = biological target: T23, SOCS7 peptide on HLA-A*11:01 (human); test: cytokine release
T23 peptide: GSGGGDGTGK

[24] = biological target: T24, SUCB2 peptide on HLA-A*11:01 (human); test: cytokine release
T24 peptide: CAIIANGITK

[25] = biological target: T25, KRAS G12D (10-mer; the same sequence in NRAS G12D and HRAS G12D) peptide on HLA-A*11:01 (human); test: multimer staining
T25 peptide: VVVGADGVGK

[26] = biological target: T26, KRAS G12D (9-mer; the same sequence in NRAS G12D and HRAS G12D) peptide on HLA-A*11:01 (human); test: cytokine release
T26 peptide: VVGADGVGK

[27] = biological target: T27, CHADL peptide on HLA-A*11:01 (human); test: cytokine release
T27 peptide: RQCGADKVGK

[28] = biological target: T28, DAZP1 peptide on HLA-A*11:01 (human); test: cytokine release
T28 peptide: NNSGADEIGK

[29] = biological target: T29, FMNL1 peptide on HLA-A*11:01 (human); test: cytokine release
T29 peptide: QEAGADTPGK

[30] = biological target: T30, GTR14; GTR3 (the same peptide, also listed as SEQ ID NO 88) peptide on HLA-A*11:01 (human); test: cytokine release
T30 peptide: QAHGADRSGK

[31] = biological target: T31, MICU1 peptide on HLA-A*11:01 (human); test: cytokine release
T31 peptide: YFFGADLKGK

[32] = biological target: T32, ADA2C peptide on HLA-A*11:01 (human); test: cytokine release
T32 peptide: GAGGADGQGA

[33] = biological target: T33, CC88B peptide on HLA-A*11:01 (human); test: cytokine release
T33 peptide: LRLGADGAGS

[34] = biological target: T34, DYH8 peptide on HLA-A*11:01 (human); test: cytokine release
T34 peptide: KVAGADGKGI

[35] = biological target: T35, EFMT2 peptide on HLA-A*11:01 (human); test: cytokine release
T35 peptide: MSSGADGGGG

[36] = biological target: T36, FOXL2 peptide on HLA-A*11:01 (human); test: cytokine release
T36 peptide: AGAGADGYGY

[37] = biological target: T37, HMCN2 peptide on HLA-A*11:01 (human); test: cytokine release
T37 peptide: IKQGADGSGT

[38] = biological target: T38, MARF1 peptide on HLA-A*11:01 (human); test: cytokine release
T38 peptide: LKLGADGSGP

[39] = biological target: T39, MED13 peptide on HLA-A*11:01 (human); test: cytokine release
T39 peptide: NNDGADGMGI

[40] = biological target: T40, MYLK peptide on HLA-A*11:01 (human); test: cytokine release
T40 peptide: GGVGADGGGS

[41] = biological target: T41, NDF2 peptide on HLA-A*11:01 (human); test: cytokine release
T41 peptide: TEQGADGAGR

[42] = biological target: T42, PBX3 peptide on HLA-A*11:01 (human); test: cytokine release
T42 peptide: GHEGADGDGR

[43] = biological target: T43, PER1 peptide on HLA-A*11:01 (human); test: cytokine release
T43 peptide: PLEGADGGGD

[44] = biological target: T44, ZN646 peptide on HLA-A*11:01 (human); test: cytokine release
T44 peptide: PEDGADGWGP

[45] = biological target: T45, HIC1 peptide on HLA-A*11:01 (human); test: cytokine release
T45 peptide: GVPGPDGKGK

[46] = biological target: T46, TBL3 peptide on HLA-A*11:01 (human); test: cytokine release
T46 peptide: LSSGSDGLVK

[47] = biological target: T47, CK049 peptide on HLA-A*11:01 (human); test: cytokine release
T47 peptide: YSCPPPALVK

[48] = biological target: T48, CL056 peptide on HLA-A*11:01 (human); test: cytokine release
T48 peptide: SSQSAPTTGK

[49] = biological target: T49, CPNS1 peptide on HLA-A*11:01 (human); test: cytokine release
T49 peptide: AVMDSDTTGK

[50] = biological target: T50, CPNS2 peptide on HLA-A*11:01 (human); test: cytokine release
T50 peptide: SVMDSDTTGK

[51] = biological target: T51, FLNA peptide on HLA-A*11:01 (human); test: cytokine release
T51 peptide: VTIDGPSKVK

[52] = biological target: T52, GRIN1 peptide on HLA-A*11:01 (human); test: cytokine release
T52 peptide: GTAGPPSAVK

[53] = biological target: T53, IGM peptide on HLA-A*11:01 (human); test: cytokine release
T53 peptide: LTESGPALVK

[54] = biological target: T54, KZF4 peptide on HLA-A*11:01 (human); test: cytokine release
T54 peptide: HSVSSPTVGK

[55] = biological target: T55, IL17F peptide on HLA-A*11:01 (human); test: cytokine release
T55 peptide: KTLHGPAMVK

[56] = biological target: T56, K1671 peptide on HLA-A*11:01 (human); test: cytokine release
T56 peptide: TTKSGPALGK

[57] = biological target: T57, KAD3 peptide on HLA-A*11:01 (human); test: cytokine release
T57 peptide: VIMGAPGSGK

[58] = biological target: T58, LEGL peptide on HLA-A*11:01 (human); test: cytokine release
T58 peptide: SVADSDAVVK

[59] = biological target: T59, RL7A peptide on HLA-A*11:01 (human); test: cytokine release
T59 peptide: KVAPAPAVVK

[60] = biological target: T60, RSLAA peptide on HLA-A*11:01 (human); test: cytokine release
T60 peptide: AVLGAPGVGK

[61] = biological target: T61, SALL1 peptide on HLA-A*11:01 (human); test: cytokine release
T61 peptide: SATSPPGSVK

[62] = biological target: T62, SEZ6 peptide on HLA-A*11:01 (human); test: cytokine release
T62 peptide: LSLEAPTVGK

[63] = biological target: T63, SHAN3 peptide on HLA-A*11:01 (human); test: cytokine release
T63 peptide: TTVPSPASGK

[64] = biological target: T64, ABCF1 peptide on HLA-A*11:01 (human); test: cytokine release
T64 peptide: STSPSDKVVK

[65] = biological target: T65, BMS1 peptide on HLA-A*11:01 (human); test: cytokine release
T65 peptide: VVMGPPKVGK

[66] = biological target: T66, CD166 peptide on HLA-A*11:01 (human); test: cytokine release
T66 peptide: NVFEAPTIVK

[67] = biological target: T67, CFA47 peptide on HLA-A*11:01 (human); test: cytokine release
T67 peptide: MVFDSPTIGK

binding result [1]: no recognition | binding result [2]: no recognition | binding result [3]: no recognition | binding result [4]: no recognition | binding result [5]: no recognition | binding result [6]: no recognition | binding result [7]: no recognition | binding result [8]: no recognition | binding result [9]: no recognition | binding result [10]: no recognition | binding result [11]: no recognition | binding result [12]: no recognition | binding result [13]: no recognition | binding result [14]: no recognition | binding result [15]: no recognition | binding result [16]: no recognition | binding result [17]: no recognition | binding result [18]: no recognition | binding result [19]: no recognition | binding result [20]: no recognition | binding result [21]: no recognition | binding result [22]: no recognition | binding result [23]: no recognition | binding result [24]: no recognition | binding result [25]: recognises
B1: TCR 4 (TCR, V domains shown)
Valpha: QKEVEQDPGPLSVPEGAIVSLNCTYSNSAFQYFMWYRQYSRKGPELLMYTYSSGNKEDGRFTAQVDKSSKYISLFIRDSQPSDSATYLCAMGALNSGAGSYQLTFGKGTKLSVIP
Vbeta: KAGVTQTPRYLIKTRGQQVTLSCSPISGHRSVSWYQQTPGQGLQFLFEYFSETQRNKGNFPGRFSGRQFSNSRSEMNVSTLELGDSALYLCASSLSSGTGTEAFFGQGTRLTVV

binding result [26]: recognises | binding result [27]: no recognition | binding result [28]: no recognition | binding result [29]: no recognition | binding result [1]: no recognition | binding result [30]: no recognition | binding result [31]: no recognition | binding result [32]: no recognition | binding result [33]: no recognition | binding result [34]: no recognition | binding result [35]: no recognition | binding result [36]: no recognition | binding result [37]: no recognition | binding result [38]: no recognition | binding result [39]: no recognition | binding result [2]: no recognition | binding result [40]: no recognition | binding result [41]: no recognition | binding result [42]: no recognition | binding result [43]: no recognition | binding result [44]: no recognition | binding result [45]: no recognition | binding result [46]: no recognition | binding result [25]: recognises
B2: TCR 3 (TCR, V domains shown)
Valpha: AQTVTQSQPEMSVQEAETVTLSCTYDTSESDYYLFWYKQPPSRQMILVIRQEAYKQQNATENRFSVNFQKAAKSFSLKISDSQLGDAAMYFCAYRSDGGATNKLIFGTGTLLAVQP
Vbeta: EAQVTQNPRYLITVTGKKLTVTCSQNMNHEYMSWYRQDPGLGLRQIYYSMNVEVTDKGDVPEGYKVSRKEKRNFPLILESPSPNQTSLYFCASSLGAGGYNSPLHFGNGTRLTVT

binding result [47]: no recognition | binding result [48]: no recognition | binding result [49]: no recognition | binding result [50]: no recognition | binding result [51]: no recognition | binding result [52]: no recognition | binding result [53]: no recognition | binding result [54]: no recognition | binding result [55]: no recognition | binding result [56]: no recognition | binding result [26]: recognises | binding result [57]: no recognition | binding result [58]: no recognition | binding result [59]: no recognition | binding result [60]: no recognition | binding result [61]: no recognition | binding result [62]: no recognition | binding result [63]: no recognition | binding result [1]: no recognition | binding result [2]: no recognition | binding result [64]: no recognition | binding result [65]: no recognition | binding result [66]: no recognition | binding result [67]: no recognition | binding result [25]: recognises
B3: TCR 2 (TCR, V domains shown)
Valpha: AQTVTQSQPEMSVQEAETVTLSCTYDTSENNYYLFWYKQPPSRQMILVIRQEAYKQQNATENRFSVNFQKAAKSFSLKISDSQLGDTAMYFCAFMYPSQGGSEKLVFGKGMKLTVNP
Vbeta: ETGVTQSPTHLIKTRGQQVTLRCSSQSGHNTVSWYQQALGQGPQFIFQYYREEENGRGNFPPRFSGLQFPNYSSELNVNALELDDSALYLCASSSPGFRSYGYTFGSGTRLTVV
